# Reference: patent publication US20140186370A1
# Biological target: vaccinia virus B5R 6xHis protein (baculovirus-expressed soluble extracellular domain) (vaccinia virus)
substance,measurement,value
Hum IgG1 isotype control (antibody),% inhibition,0%
